Ends that are not written are not given here. * marks the point of attachment. Biotin = O=C1N[C@H]2[C@H](CS[C@H]2CCCCC(=O)*)N1
Key:
Test in all cases: G' assay (10 uM PL peptide), results of TABLE 7 and TABLE 12
Type in all cases: binding
[1] = target: T1, PDZ protein (GST-PDZ fusion) (Homo sapiens, UniProt Q13424); details: PDZ Synt. 1 alpha, PDZ Domain 1
T1 construct: made in house; host or cells: E. coli (DH5alpha, BL21 or JM109)
T1 sequence (Q13424 1-505): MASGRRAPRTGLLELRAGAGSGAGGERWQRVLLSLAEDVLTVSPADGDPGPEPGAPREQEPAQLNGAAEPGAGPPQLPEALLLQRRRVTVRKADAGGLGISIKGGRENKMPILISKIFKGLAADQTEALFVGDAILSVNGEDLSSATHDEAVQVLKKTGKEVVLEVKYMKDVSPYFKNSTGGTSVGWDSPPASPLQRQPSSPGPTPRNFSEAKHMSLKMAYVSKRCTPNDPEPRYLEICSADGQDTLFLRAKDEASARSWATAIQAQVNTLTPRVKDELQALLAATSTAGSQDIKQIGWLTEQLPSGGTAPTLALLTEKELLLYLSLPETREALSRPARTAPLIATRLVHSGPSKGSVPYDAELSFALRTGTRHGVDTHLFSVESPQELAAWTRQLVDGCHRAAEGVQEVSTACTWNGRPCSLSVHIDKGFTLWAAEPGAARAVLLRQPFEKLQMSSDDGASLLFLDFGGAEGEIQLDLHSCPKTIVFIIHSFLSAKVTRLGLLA
Outline: (§1)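 Biotinylated PL peptides at 10 uM (vs 20 uM in G^0 assay) bound to GST-PDZ fusions; PDZ protein at 5 ug/ml unless another concentration listed. Bound peptide read as A450 nm, classified 0–5 (0 = A450 0; 5 = A450 >4 repeated).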

[2] = target: T2, PDZ protein (GST-PDZ fusion) (Homo sapiens, UniProt Q13796); details: PDZ hAPXL, PDZ Domain 1
T2 construct: made in house; host or cells: E. coli (DH5alpha, BL21 or JM109)
T2 sequence (Q13796 whole entry, the tested form may be a part): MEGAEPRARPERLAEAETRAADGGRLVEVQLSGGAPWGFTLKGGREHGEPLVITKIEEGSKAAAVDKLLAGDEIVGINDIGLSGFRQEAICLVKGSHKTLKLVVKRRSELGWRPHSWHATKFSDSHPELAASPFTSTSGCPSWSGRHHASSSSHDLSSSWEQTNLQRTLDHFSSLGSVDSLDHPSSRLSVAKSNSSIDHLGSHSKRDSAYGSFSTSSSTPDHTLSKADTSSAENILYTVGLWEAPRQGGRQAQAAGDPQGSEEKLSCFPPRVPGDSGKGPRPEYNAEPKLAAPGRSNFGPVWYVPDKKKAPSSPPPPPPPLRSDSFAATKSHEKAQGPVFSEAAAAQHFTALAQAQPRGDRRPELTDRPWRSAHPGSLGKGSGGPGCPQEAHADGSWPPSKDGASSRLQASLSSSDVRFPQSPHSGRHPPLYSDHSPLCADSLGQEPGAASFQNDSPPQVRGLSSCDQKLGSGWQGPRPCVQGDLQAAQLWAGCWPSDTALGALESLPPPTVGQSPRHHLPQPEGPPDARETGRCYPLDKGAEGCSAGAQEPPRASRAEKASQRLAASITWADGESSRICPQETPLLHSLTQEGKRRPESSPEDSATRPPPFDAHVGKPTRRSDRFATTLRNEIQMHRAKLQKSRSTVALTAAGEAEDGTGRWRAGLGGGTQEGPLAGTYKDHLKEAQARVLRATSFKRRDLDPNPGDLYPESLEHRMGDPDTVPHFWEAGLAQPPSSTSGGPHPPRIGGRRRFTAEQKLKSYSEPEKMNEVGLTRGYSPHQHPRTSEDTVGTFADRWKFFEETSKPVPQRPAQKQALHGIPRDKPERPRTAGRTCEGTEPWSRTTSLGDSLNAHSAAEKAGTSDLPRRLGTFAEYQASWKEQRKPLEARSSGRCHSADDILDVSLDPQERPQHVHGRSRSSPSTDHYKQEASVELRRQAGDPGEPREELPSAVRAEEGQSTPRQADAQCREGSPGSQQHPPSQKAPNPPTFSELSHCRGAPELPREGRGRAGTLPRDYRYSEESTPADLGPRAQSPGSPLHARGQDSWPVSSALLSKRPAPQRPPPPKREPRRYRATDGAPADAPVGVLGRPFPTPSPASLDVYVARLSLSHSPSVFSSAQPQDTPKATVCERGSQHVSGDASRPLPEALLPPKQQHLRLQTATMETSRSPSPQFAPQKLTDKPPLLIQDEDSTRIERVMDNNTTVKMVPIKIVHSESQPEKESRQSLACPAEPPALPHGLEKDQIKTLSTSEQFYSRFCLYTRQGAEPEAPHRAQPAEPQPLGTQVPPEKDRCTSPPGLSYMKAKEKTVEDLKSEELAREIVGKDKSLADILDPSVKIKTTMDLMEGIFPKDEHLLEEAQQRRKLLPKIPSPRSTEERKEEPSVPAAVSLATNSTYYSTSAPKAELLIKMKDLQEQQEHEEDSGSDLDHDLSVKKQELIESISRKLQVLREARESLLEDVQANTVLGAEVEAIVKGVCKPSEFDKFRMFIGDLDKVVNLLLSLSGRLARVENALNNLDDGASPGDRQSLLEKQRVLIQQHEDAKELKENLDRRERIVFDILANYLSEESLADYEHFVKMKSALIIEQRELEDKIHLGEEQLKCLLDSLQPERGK
Outline: as §1

[3] = target: T3, PDZ protein (GST-PDZ fusion) (Homo sapiens, UniProt Q5T2W1); details: PDZ PDZK1, PDZ Domain 2, 3, 4
T3 construct: made in house; host or cells: E. coli (DH5alpha, BL21 or JM109)
T3 sequence (Q5T2W1 1-519): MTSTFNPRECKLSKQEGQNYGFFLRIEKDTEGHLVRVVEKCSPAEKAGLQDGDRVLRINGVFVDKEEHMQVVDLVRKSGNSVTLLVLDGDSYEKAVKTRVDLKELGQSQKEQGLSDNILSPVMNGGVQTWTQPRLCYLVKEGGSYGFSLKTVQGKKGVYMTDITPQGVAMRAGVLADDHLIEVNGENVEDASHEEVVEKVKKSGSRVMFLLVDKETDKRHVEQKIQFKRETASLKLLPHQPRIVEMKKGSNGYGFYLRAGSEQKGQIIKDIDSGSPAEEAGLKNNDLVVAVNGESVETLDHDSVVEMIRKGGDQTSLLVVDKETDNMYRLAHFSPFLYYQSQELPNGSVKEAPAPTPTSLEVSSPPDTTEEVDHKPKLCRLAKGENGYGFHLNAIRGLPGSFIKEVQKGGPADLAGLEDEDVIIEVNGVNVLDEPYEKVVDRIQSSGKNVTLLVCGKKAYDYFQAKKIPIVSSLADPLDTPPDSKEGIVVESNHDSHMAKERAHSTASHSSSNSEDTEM
Outline: as §1

[4] = target: T4, PDZ protein (GST-PDZ fusion) (Homo sapiens, UniProt Q6P0Q8)
T4 construct: made in house; host or cells: E. coli (DH5alpha, BL21 or JM109)
T4 sequence (Q6P0Q8 whole entry, the tested form may be a part): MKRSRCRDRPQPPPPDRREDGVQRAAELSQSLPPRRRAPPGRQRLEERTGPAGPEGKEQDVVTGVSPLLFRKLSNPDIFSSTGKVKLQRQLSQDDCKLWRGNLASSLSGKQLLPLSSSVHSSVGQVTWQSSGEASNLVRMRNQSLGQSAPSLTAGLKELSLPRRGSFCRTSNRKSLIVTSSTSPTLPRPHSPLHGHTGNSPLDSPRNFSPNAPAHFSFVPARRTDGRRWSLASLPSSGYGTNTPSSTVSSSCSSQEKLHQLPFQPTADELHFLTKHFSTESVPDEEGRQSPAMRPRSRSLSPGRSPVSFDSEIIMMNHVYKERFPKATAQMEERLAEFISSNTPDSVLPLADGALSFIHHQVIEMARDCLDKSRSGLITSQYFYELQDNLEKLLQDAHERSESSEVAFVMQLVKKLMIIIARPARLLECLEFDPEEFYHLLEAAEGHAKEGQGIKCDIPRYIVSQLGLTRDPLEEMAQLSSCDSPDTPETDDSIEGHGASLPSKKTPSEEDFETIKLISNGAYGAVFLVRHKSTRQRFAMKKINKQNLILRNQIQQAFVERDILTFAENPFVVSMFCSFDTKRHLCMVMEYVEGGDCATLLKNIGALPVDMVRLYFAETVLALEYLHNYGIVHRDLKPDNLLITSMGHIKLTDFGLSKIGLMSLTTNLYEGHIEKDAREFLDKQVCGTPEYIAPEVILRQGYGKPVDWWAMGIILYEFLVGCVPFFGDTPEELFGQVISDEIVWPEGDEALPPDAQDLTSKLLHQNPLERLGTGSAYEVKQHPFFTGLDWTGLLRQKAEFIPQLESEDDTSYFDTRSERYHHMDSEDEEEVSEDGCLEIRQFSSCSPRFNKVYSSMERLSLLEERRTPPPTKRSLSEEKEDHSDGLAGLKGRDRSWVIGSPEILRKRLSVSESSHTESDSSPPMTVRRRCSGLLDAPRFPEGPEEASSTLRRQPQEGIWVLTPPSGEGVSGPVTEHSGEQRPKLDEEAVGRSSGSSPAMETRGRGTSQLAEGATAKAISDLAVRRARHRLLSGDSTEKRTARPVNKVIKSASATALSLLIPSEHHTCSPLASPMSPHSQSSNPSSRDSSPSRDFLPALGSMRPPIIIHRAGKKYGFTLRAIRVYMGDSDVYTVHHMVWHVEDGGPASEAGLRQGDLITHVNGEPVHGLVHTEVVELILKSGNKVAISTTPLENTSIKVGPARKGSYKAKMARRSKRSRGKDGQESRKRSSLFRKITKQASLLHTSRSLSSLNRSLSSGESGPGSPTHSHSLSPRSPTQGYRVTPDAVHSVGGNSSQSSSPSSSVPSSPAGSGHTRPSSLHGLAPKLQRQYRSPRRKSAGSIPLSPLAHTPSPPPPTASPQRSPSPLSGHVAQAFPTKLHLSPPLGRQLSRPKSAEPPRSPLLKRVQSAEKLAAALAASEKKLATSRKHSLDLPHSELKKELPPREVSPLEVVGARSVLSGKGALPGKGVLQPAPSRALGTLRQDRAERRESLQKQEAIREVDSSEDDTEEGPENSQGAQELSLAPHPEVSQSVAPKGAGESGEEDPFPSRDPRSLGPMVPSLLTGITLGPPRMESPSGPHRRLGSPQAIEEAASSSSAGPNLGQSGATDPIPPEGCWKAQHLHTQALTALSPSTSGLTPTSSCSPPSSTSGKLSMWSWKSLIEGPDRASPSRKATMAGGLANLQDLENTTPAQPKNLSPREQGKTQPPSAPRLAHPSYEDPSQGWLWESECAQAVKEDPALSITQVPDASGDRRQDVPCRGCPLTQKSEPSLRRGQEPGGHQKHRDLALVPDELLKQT
Outline: as §1

[5] = tested on: PDZ protein (GST-PDZ fusion); details: PDZ SHANK, PDZ Domain 1
Outline: as §1

- Classification [1]: 1 (A450 nm 0-1)
- Classification [2]: 1 (A450 nm 0-1)
- Classification [3]: 1 (A450 nm 0-1)
- Classification ([4]; PDZ KIAA807): 1 (A450 nm 0-1)
- Classification ([4]; PDZ KIAA0807(S), PDZ Domain 1): 1 (A450 nm 0-1)
Sequence: DAKLKSDGTIAAITEKETHF (Biotin-DAKLKSDGTIAAITEKETHF) [GABA transporter 3]
- Classification [5]: 1 (A450 nm 0-1)

Reference: patent US20050282743A1, “Molecular interactions in cells” (Arbor Vita Corporation, priority 2001, published 2005)
